Results published in patent US20090312253A1.

How the values were obtained:
[1] = molecular target: LRP6 expressed on HEK cells transfected with the LRP6 plasmid; experiment: Dkk1-AP conditioned medium on LRP6-transfected HEK cells, AP activity in cell lysate, wild type = 100%
[2] = molecular target: LRP6 expressed on HEK cells transfected with the LRP6 plasmid; experiment: binding of Dkk1 to LRP6, assay not described for this mutant (data not shown)

reduction of binding to LRP6 against wild-type Dkk1 [1] [%] | reduction of binding to LRP6 against wild-type Dkk1 [2] [%] | Binder
> 50 |  | mouse Dkk1-AP mutant H210E (ligand, UniProt O54908 32-272, looked up, not shown: large carriers) TLNSVLINSNAIKNLPPPLGGAGGQPGSAVSVAPGVLYEGGNKYQTLDNYQPYPCAEDEECGSDEYCSSPSRGAAGVGGVQICLACRKRRKRCMRHAMCCPGNYCKNGICMPSDHSHFPRGEIEESIIENLGNDHNAAAGDGYPRRTTLTSKIYHTKGQEGSVCLRSSDCAAGLCCAREFWSKICKPVLKEGQVCTKHKRKGSHGLEIFQRCYCGEGLACRIQKDHHQASNSSRLHTCQRH
> 50 |  | mouse Dkk1-AP mutant K217E (ligand, UniProt O54908 32-272, looked up, not shown: large carriers) TLNSVLINSNAIKNLPPPLGGAGGQPGSAVSVAPGVLYEGGNKYQTLDNYQPYPCAEDEECGSDEYCSSPSRGAAGVGGVQICLACRKRRKRCMRHAMCCPGNYCKNGICMPSDHSHFPRGEIEESIIENLGNDHNAAAGDGYPRRTTLTSKIYHTKGQEGSVCLRSSDCAAGLCCARHFWSKICEPVLKEGQVCTKHKRKGSHGLEIFQRCYCGEGLACRIQKDHHQASNSSRLHTCQRH
 | 40 | Dkk1 mutant L266A (ligand, mouse, UniProt O54908 32-272, looked up, not shown: large carriers) TLNSVLINSNAIKNLPPPLGGAGGQPGSAVSVAPGVLYEGGNKYQTLDNYQPYPCAEDEECGSDEYCSSPSRGAAGVGGVQICLACRKRRKRCMRHAMCCPGNYCKNGICMPSDHSHFPRGEIEESIIENLGNDHNAAAGDGYPRRTTLTSKIYHTKGQEGSVCLRSSDCAAGLCCARHFWSKICKPVLKEGQVCTKHKRKGSHGLEIFQRCYCGEGLACRIQKDHHQASNSSRAHTCQRH
43 |  | mouse Dkk1-AP mutant H267E (ligand, UniProt O54908 32-272, looked up, not shown: large carriers) TLNSVLINSNAIKNLPPPLGGAGGQPGSAVSVAPGVLYEGGNKYQTLDNYQPYPCAEDEECGSDEYCSSPSRGAAGVGGVQICLACRKRRKRCMRHAMCCPGNYCKNGICMPSDHSHFPRGEIEESIIENLGNDHNAAAGDGYPRRTTLTSKIYHTKGQEGSVCLRSSDCAAGLCCARHFWSKICKPVLKEGQVCTKHKRKGSHGLEIFQRCYCGEGLACRIQKDHHQASNSSRLETCQRH
> 50 |  | mouse Dkk1-AP mutant R242E (ligand, UniProt O54908 32-272, looked up, not shown: large carriers) TLNSVLINSNAIKNLPPPLGGAGGQPGSAVSVAPGVLYEGGNKYQTLDNYQPYPCAEDEECGSDEYCSSPSRGAAGVGGVQICLACRKRRKRCMRHAMCCPGNYCKNGICMPSDHSHFPRGEIEESIIENLGNDHNAAAGDGYPRRTTLTSKIYHTKGQEGSVCLRSSDCAAGLCCARHFWSKICKPVLKEGQVCTKHKRKGSHGLEIFQECYCGEGLACRIQKDHHQASNSSRLHTCQRH
